Drawing on the supplement of paper PMC10567573, this text covers protein stability index for 94 variants.

B1: FBXO39 (parent)
chain: RVFKARIYTNRYETNEEDKTLQEI
B2: KLHL14 (parent)
chain: WLYCYDPVMDVWARKQDMNTKRAI
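Further: lentivirally expressed fusions sorted by FACS into six bins by GFP to DsRed ratio, PSI derived from sequencing read proportions per bin multiplied by bin number.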

The variants in one data set derive from B1. Nature of the data set: protein stability index of a GFP-peptide fusion (GPS, HEK-293T) (PSI 1-6); higher = more stable. The note with it: c terminus: a fixed tail appended.
As to RVFKARIYTNRYETNEEDKTKQEI, the protein stability index turned out to be 2.5.
With RVFKARIYTNRYETNEEDKTFQEI, the protein stability index was 2.52.
In the case of RVFKARIYTNRYETNEEDKTTQEI, the protein stability index amounted to 2.97.
As to VVFKARIYTNRYETNEEDKTLQEI, the protein stability index was 1.66.
As for HVFKARIYTNRYETNEEDKTLQEI, the protein stability index was determined as 3.35.
Still for that read-out and setting: as for RVFKARIYTNRYEENEEDKTLQEI, the figure is 2.62; as for RVFKARIYTNRYENNEEDKTLQEI, 2.21; as for RVFKARIYTNRYETNEEDKTLSEI, 1.12.
For the variant RVFKARIYTNRYETPEEDKTLQEI, the protein stability index came out at 3.01.
As to RVFKARIYTNRYETGEEDKTLQEI, the protein stability index came out at 2.5.
Take RVFKARIYTNRYETNNEDKTLQEI: the protein stability index is 1.74.
Same read-out and setting: with RVFKARIYTNRYETNIEDKTLQEI the figure was 3.1; with RVFKARIYTNRYETNDEDKTLQEI, 2.88; with RVFKARIYTNRYETNPEDKTLQEI, 1.89.
Same read-out and setting: as for RVFKARIYTHRYETNEEDKTLQEI, the figure is 2.82.
Take RVFKARIYTNRYETNEEDKTLQII: the protein stability index is 1.88.
In the case of RVFKARIYTNRYETNEEDKTLQPI, the protein stability index came out at 2.39.
On to RVFKSRIYTNRYETNEEDKTLQEI, for which the protein stability index worked out at 2.71.
The same measure, in the same setting: as for RVFKPRIYTNRYETNEEDKTLQEI, the figure is 3.05; as for RVFKFRIYTNRYETNEEDKTLQEI, 1.63; as for RVFHARIYTNRYETNEEDKTLQEI, 3.52.
The same measure, in the same setting: with RVFKAQIYTNRYETNEEDKTLQEI the figure was 3.71; with RVFKAIIYTNRYETNEEDKTLQEI, 1.9.
As to RVFKARIVTNRYETNEEDKTLQEI, the protein stability index amounted to 3.08.
On the same count and under the same terms, with RVFKARIETNRYETNEEDKTLQEI the figure was 3.93; with RVFKARIPTNRYETNEEDKTLQEI, 2.45; with RVFKARIFTNRYETNEEDKTLQEI, 2.91.
The same measure, in the same setting: as for RVFKARIHTNRYETNEEDKTLQEI, the figure is 3.27; as for RVFKARIYTNKYETNEEDKTLQEI, 2.88; as for RVFKARIYTNHYETNEEDKTLQEI, 2.34.
Still for that read-out and setting: with RVFKARIYTNIYETNEEDKTLQEI the figure was 2.46; with RVEKARIYTNRYETNEEDKTLQEI, 5.23; with RVCKARIYTNRYETNEEDKTLQEI, 2.82.
Take RVFKARIYTNRYETNEEYKTLQEI: the protein stability index is 2.78.
On the same count and under the same terms, with RVFKARIYTNRYETNEEQKTLQEI the figure was 2.78; with RVFKARIYHNRYETNEEDKTLQEI, 2.47; with RVFKARIYLNRYETNEEDKTLQEI, 2.54.
For the variant RVFKARIYTNRYETNECDKTLQEI, the protein stability index amounted to 2.03.
The same measure, in the same setting: as for RVFKARIYTNRYETNEEDKTLQEW, the figure is 2.34; as for RVFKARIYTNRYETNEEDKTLQED, 3.26.
Same read-out and setting: with RVFKARIYTNRYETNEEDKFLQEI the figure was 2.74.
The same measure, in the same setting: with RVFKARIYTNRYETNEEDKGLQEI the figure was 1.79; with RVFKARIYTNRYETNEEDMTLQEI, 2.3; with RVFKARIYTNRYETNEEDVTLQEI, 2.62.
Consider RDFKARIYTNRYETNEEDKTLQEI, for which the protein stability index worked out at 4.76.
Take RVFKARDYTNRYETNEEDKTLQEI: the protein stability index was 4.26.
As for RVFKARFYTNRYETNEEDKTLQEI, the protein stability index came out at 2.67.
With RVFKAREYTNRYETNEEDKTLQEI, the protein stability index turned out to be 3.24.
Consider RVFKARIYTNRSETNEEDKTLQEI, for which the protein stability index came to 3.36.
On to RVFKARIYTNRPETNEEDKTLQEI, for which the protein stability index was 2.91.
Same read-out and setting: with RVFKARIYTNRYDTNEEDKTLQEI the figure was 2.48; with RVFKARIYTNRYYTNEEDKTLQEI, 1.69; with RVFKARIYTNRYWTNEEDKTLQEI, 2.53.
Same read-out and setting: with RVFKARIYTNRYITNEEDKTLQEI the figure was 1.92.

The variants in the next data set derive from B2. The description is as above. To be noted: c terminus: a fixed tail appended.
On to WEYCYDPVMDVWARKQDMNTKRAI, for which the protein stability index was determined as 2.61.
Consider WIYCYDPVMDVWARKQDMNTKRAI, for which the protein stability index stood at 1.84.
For the variant WVYCYDPVMDVWARKQDMNTKRAI, the protein stability index was found to be 2.16.
The same measure, in the same setting: with WKYCYDPVMDVWARKQDMNTKRAI the figure was 2.29.
Still for that read-out and setting: as for WHYCYDPVMDVWARKQDMNTKRAI, the figure is 2.35.
Still for that read-out and setting: as for WAYCYDPVMDVWARKQDMNTKRAI, the figure is 2.24; as for WSYCYDPVMDVWARKQDMNTKRAI, 2.39.
In the case of WDYCYDPVMDVWARKQDMNTKRAI, the protein stability index stood at 2.52.
On the same count and under the same terms, as for WFYCYDPVMDVWARKQDMNTKRAI, the figure is 1.45.
The same measure, in the same setting: with WQYCYDPVMDVWARKQDMNTKRAI the figure was 2.55.
On the same count and under the same terms, as for WPYCYDPVMDVWARKQDMNTKRAI, the figure is 2.13; as for WNYCYDPVMDVWARKQDMNTKRAI, 2.19; as for WYYCYDPVMDVWARKQDMNTKRAI, 2.52.
For the variant WMYCYDPVMDVWARKQDMNTKRAI, the protein stability index was determined as 1.9.
WTYCYDPVMDVWARKQDMNTKRAI: the protein stability index amounted to 2.11.
On the same count and under the same terms, as for WWYCYDPVMDVWARKQDMNTKRAI, the figure is 1.56; as for WCYCYDPVMDVWARKQDMNTKRAI, 2.18; as for WGYCYDPVMDVWARKQDMNTKRAI, 2.29.
In the case of WRYCYDPVMDVWARKQDMNTKRAI, the protein stability index was found to be 2.06.
On the same count and under the same terms, as for WLYDYDPVMDVWARKQDMNTKRAI, the figure is 2.06; as for WLYQYDPVMDVWARKQDMNTKRAI, 2.31; as for WLYVYDPVMDVWARKQDMNTKRAI, 2.08.
The same measure, in the same setting: as for WLYYYDPVMDVWARKQDMNTKRAI, the figure is 2.13.
As for WLYNYDPVMDVWARKQDMNTKRAI, the protein stability index came out at 2.5.
On the same count and under the same terms, as for WLYHYDPVMDVWARKQDMNTKRAI, the figure is 2.6; as for WLYRYDPVMDVWARKQDMNTKRAI, 1.63.
Same read-out and setting: as for WLYLYDPVMDVWARKQDMNTKRAI, the figure is 1.61.
Same read-out and setting: as for WLYEYDPVMDVWARKQDMNTKRAI, the figure is 2.41; as for WLYTYDPVMDVWARKQDMNTKRAI, 2.84; as for WLYSYDPVMDVWARKQDMNTKRAI, 2.14.
Consider WLYMYDPVMDVWARKQDMNTKRAI, for which the protein stability index was found to be 1.89.
Same read-out and setting: with WLYKYDPVMDVWARKQDMNTKRAI the figure was 2.04; with WLYAYDPVMDVWARKQDMNTKRAI, 2.34.
In the case of WLYFYDPVMDVWARKQDMNTKRAI, the protein stability index amounted to 1.94.
Still for that read-out and setting: as for WLYPYDPVMDVWARKQDMNTKRAI, the figure is 2.51; as for WLYWYDPVMDVWARKQDMNTKRAI, 2.35; as for WLYIYDPVMDVWARKQDMNTKRAI, 1.96.
WLYGYDPVMDVWARKQDMNTKRAI: the protein stability index was determined as 2.58.
Take WLHCYDPVMDVWARKQDMNTKRAI: the protein stability index is 2.22.
The same measure, in the same setting: as for WLQCYDPVMDVWARKQDMNTKRAI, the figure is 1.97.
